Measurements: patent publication US20080060092A1

Key:
[1] = biological target: FcγRIIIa on human effector cells of a FcγRIIIa Phe/Val^158 heterozygote donor (human) (UniProt P08637); test: cell-based or functional assay
[2] = biological target: FcγRIIIa on human effector cells of a FcγRIIIa Phe/Phe^158 homozygote donor (human) (UniProt P08637); test: cell-based or functional assay

| ADCC, maximal percent cell lysis of L540 target cells [1] [%] | ADCC, maximal percent cell lysis of L540 target cells [2] [%] | ADCC EC50, times lower than MDX-060 CHO [1] [fold] | ADCC EC50, times lower than MDX-060 LEX [1] [fold] | Substance |
| --- | --- | --- | --- | --- |
| 31 | 27 |  |  | MDX-060 LEX (antibody) |
|  |  | 5 | 3 | MDX-060 LEX^Opt (antibody) |
| 31 | 15 |  |  | MDX-060 CHO (antibody) |
